1 substance from patent publication US20100209425A1 can be followed below.

Assay [1] addresses hen-egg lysozyme (HEL) from chicken egg white (chicken) (UniProt P00698). Description: flow cytometry titration of biotinylated HEL on yeast-displayed D1.3 scFv; PBS with Triton X-100. For orientation: Flow cytometry measures light scatter and fluorescence of single cells or particles in a stream.
Assay [2] has the same target. Kind of assay: flow cytometry titration of biotinylated HEL on yeast-displayed D1.3 scFv; PBS with BSA.
The target is the same in assay [3]. Kind of assay: yeast display immunoprecipitation with 5x10^7 yeast from RBE4 lysate holding 34 nM HEL, gel densitometry.
Assay [4] has the same target. Description: flow cytometry titration of biotinylated HEL on yeast-displayed D1.3 scFv; PBS with n-octyl-beta-D-glucopyranoside.

Sequence of UniProt P00698 (P00698 19-147): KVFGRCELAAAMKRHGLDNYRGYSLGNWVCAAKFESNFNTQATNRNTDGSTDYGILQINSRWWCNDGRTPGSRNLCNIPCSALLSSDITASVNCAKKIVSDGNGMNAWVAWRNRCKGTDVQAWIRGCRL

One may read the Kd as the free concentration of one partner at which half of the binding sites on the other are occupied at equilibrium, for simple one-to-one binding. High values mean weaker binding, low ones tighter binding. For “anti-hen egg lysozyme D1.3 scFv displayed on yeast”, the Kd was 0.488 nM in assay [1], 1.07 nM in assay [2] and 2.61 nM in assay [4]. The percent of the theoretical immunoprecipitation yield in assay [3] is 70%.
